Common to all, as to settings: 20 nM; 72 h
Data set [1] deals with MCF10A. Nature of the data set: percent viability (nuclei count relative to siNT); higher = more viable cells. On the procedure: (§1)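 After 72 h, cells were fixed and stained with Hoechst and anti-fibrillarin, and nucleoli per nucleus were counted with CellProfiler. Values are plate-adjusted percent effect for the one-nucleolus and 5+ nucleoli phenotypes, normalised to siNT (0%) and to the positive controls siNOL11 or siKIF11 (100%), as the mean of biological triplicates. Percent viability is the nuclei count relative to siNT.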

Data set [2] relates to MCF10A. Nature of the data set: 5+ nucleoli phenotype percent effect (relative to siNT 0% and siKIF11 100%); higher = more cells with five or more nucleoli. On the procedure:
as §1

The subject of data set [3] is MCF10A. Nature of the data set: one-nucleolus phenotype percent effect (relative to siNT 0% and siNOL11 100%); higher = more cells with one nucleolus (ribosome biogenesis inhibition). On the procedure:
as §1

As for AACACACCUAUUCAAGGAUUCA [hsa-miR-362-3p], the percent viability in data set [1] is 47.7%. Besides, the “5+ nucleoli phenotype percent effect” value in data set [2] was determined as 30.7%. Further, the “one-nucleolus phenotype percent effect” value in data set [3] was -7.86%.
With AACACACCUGGUUAACCUCUUU [hsa-miR-329], the percent viability in data set [1] was 46.9%. Further, in data set [2], the “5+ nucleoli phenotype percent effect” value came out at 4.45%. The “one-nucleolus phenotype percent effect” value in data set [3] is -0.532%.
Taken in the same sequence, the figures for “AACACUGGCCUUGCUAUCCCCA [hsa-miR-6757-3p]” were 52.1%, -35% and 30.1%.
Taken in the same sequence, the figures for AACAGGUGACUGGUUAGACAA [hsa-miR-552] were 123%, 36.6% and -33.6%.
Taken in the same sequence, the figures for AACAUAGAGGAAAUUCCACGU [hsa-miR-376c-3p] were 99.8%, 55.4% and -18.9%.
Take “AACAUCACAGCAAGUCUGUGCU [hsa-miR-499a-3p]”: in data set [1], the percent viability came out at 49.3%. In addition, the “5+ nucleoli phenotype percent effect” value in data set [2] is -38.3%. Besides, the “one-nucleolus phenotype percent effect” value in data set [3] is -7.15%.
Taken in the same sequence, the figures for “AACAUCACUGCAAGUCUUAACA [hsa-miR-499b-3p]” were 77%, -7.16% and -24.7%.
As to “AACAUUCAACCUGUCGGUGAGU [hsa-miR-181c-5p]”, the percent viability in data set [1] is 79%. Also, the “5+ nucleoli phenotype percent effect” value in data set [2] came to 3.6%. In addition, the “one-nucleolus phenotype percent effect” value in data set [3] came out at 6.56%.
For “AACAUUCAACGCUGUCGGUGAGU [hsa-miR-181a-5p]”, the percent viability in data set [1] was 76.4%. For the same sequence, the “5+ nucleoli phenotype percent effect” value in data set [2] came out at 0.638%. For the same sequence, the “one-nucleolus phenotype percent effect” value in data set [3] was determined as 2.31%.
As for “AACAUUCAUUGCUGUCGGUGGGU [hsa-miR-181b-5p]”, the percent viability in data set [1] came out at 93.5%. Also, in data set [2], the “5+ nucleoli phenotype percent effect” value was determined as 10.9%. Also, in data set [3], the “one-nucleolus phenotype percent effect” value was determined as 1.83%.
Take AACAUUCAUUGUUGUCGGUGGGU [hsa-miR-181d]: in data set [1], the percent viability worked out at 91.1%. Further, the “5+ nucleoli phenotype percent effect” value in data set [2] was 12.5%. Besides, the “one-nucleolus phenotype percent effect” value in data set [3] was -6.07%.
Take “AACCACUUUCUUUGCUCAUCCA [hsa-miR-1255b-2-3p]”: in data set [1], the percent viability is 32.1%. In addition, the “5+ nucleoli phenotype percent effect” value in data set [2] was -17.2%. Also, the “one-nucleolus phenotype percent effect” value in data set [3] came to 7.09%.
Taken in the same sequence, the figures for AACCAGCACCCCAACUUUGGAC [hsa-miR-634] were 4.33%, -57.2% and -35.9%.
Taken in the same sequence, the figures for “AACCAUCGACCGUUGAGUGGAC [hsa-miR-181c-3p]” were 71%, -21.2% and 16.6%.
Taken in the same sequence, the figures for “AACCCAGUGGGCUAUGGAAAUG [hsa-miR-4482-5p]” were 24.6%, -41% and 59.8%.
For the sequence “AACCCCUAAGGCAACUGGAUGG [hsa-miR-5195-5p]”, the percent viability in data set [1] was 53.1%. Also, in data set [2], the “5+ nucleoli phenotype percent effect” value is 2.35%. In addition, the “one-nucleolus phenotype percent effect” value in data set [3] is -2.47%.
Taken in the same sequence, the figures for AACCCGUAGAUCCGAACUUGUG [hsa-miR-100-5p] were 45.1%, -0.958% and 9.92%.
Taken in the same sequence, the figures for AACCCGUAGAUCCGAUCUUGUG [hsa-miR-99a-5p] were 48.2%, 1.63% and 7.7%.
Taken in the same sequence, the figures for AACCUUGGCCCCUCUCCCCAG [hsa-miR-6813-3p] were 75.9%, 67.7% and -35.3%.
In the case of AACGCACUUCCCUUUAGAGUGU [hsa-miR-521], the percent viability in data set [1] is 57.9%. Further, the “5+ nucleoli phenotype percent effect” value in data set [2] came out at 28.6%. The “one-nucleolus phenotype percent effect” value in data set [3] was -9.21%.
Taken in the same sequence, the figures for AACGCCAUUAUCACACUAAAUA [hsa-miR-122-3p] were 131%, 35.4% and -17.4%.
Taken in the same sequence, the figures for AACGGCAAUGACUUUUGUACCA [hsa-miR-548al] were 58.9%, -4.48% and -4.22%.
Taken in the same sequence, the figures for AACGGGAAUGCAGGCUGUAUCU [hsa-miR-4681] were 30.6%, 46% and -21%.

The values are drawn from the supplement of paper PMC10899765.
